Results reported in US20220119534A1 (DRAGONFLY THERAPEUTICS, published 2022).

Experiments:
[1] = target: T1, Human CD16a V158 (FcγRIIIa V158) (human, UniProt P08637 17-208, biotinylated (site not stated)); experiment: SPR; biotinylated CD16a V158 captured on SA chip, TriNKET as analyte; 1:1 kinetic fit; control, n=3
T1 construct: V158 is the allele name in mature numbering; also called hCD16aV; hCD16a V158

mFc-hNKG2D [2] = target: T2, mFc-hNKG2D (human, UniProt P26718 73-216); experiment: SPR Biacore 8K 37 C; mFc-hNKG2D captured on anti-mFc chip, TriNKET as analyte; 1:1 kinetic fit; after low pH hold, n=3
T2 construct: extracellular domain; Made in house (Dragonfly Tx); the order of tag and ECD follows the name mFc-hNKG2D; also called mFc-tagged human NKG2D; not shown: mouse Fc tag
T2 sequence (looked up): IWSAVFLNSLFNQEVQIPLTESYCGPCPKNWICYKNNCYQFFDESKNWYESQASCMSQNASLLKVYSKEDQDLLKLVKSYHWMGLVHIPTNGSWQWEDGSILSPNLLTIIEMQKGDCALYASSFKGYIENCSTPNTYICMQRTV

[3] = target: T1, Human CD16a V158 (FcγRIIIa V158); experiment: SPR; biotinylated CD16a V158 captured on SA chip, TriNKET as analyte; 1:1 kinetic fit; control sample, n=3
Experimental: Each injection cycle consisted of association, dissociation and regeneration steps. Association consisted of 150 seconds of ligand injection, dissociation was monitored for 300 seconds and then the surface was regenerated between cycles with 2 mM sodium hydroxide injected for 5 seconds. All steps were executed at a flow rate of 30 μL/min. 1× HBS-EP+ buffer solution was used as a running/sample dilution buffer. Data were analyzed using Biacore 8K Insight evaluation software (GE Healthcare).

mFc-hNKG2D [4] = target: T2, mFc-hNKG2D; experiment: SPR Biacore 8K 37 C; mFc-hNKG2D captured on anti-mFc chip, TriNKET as analyte; steady state fit; control sample
Experimental: (§1) Association was monitored for 60 seconds and dissociation was monitored for 60 seconds. Surfaces were regenerated between cycles with three pulses of 10 mM glycine-HCl, pH 1.7 injected for 20 seconds at 100 μL/min. HBS-EP+ (1×) buffer was used throughout the experiment. Data were analyzed using Biacore 8K Insight evaluation software (GE Healthcare).

mFc-hNKG2D [5] = target: T2, mFc-hNKG2D; experiment: SPR Biacore 8K 37 C; mFc-hNKG2D captured on anti-mFc chip, TriNKET as analyte; 1:1 kinetic fit; after 2 wks 40 C at pH 8.0
Experimental: as §1

Human CLEC12A-His = target: T3, Human CLEC12A-His (human, UniProt Q5QGZ9 65-265); experiment: SPR Biacore 8K 37 C; TriNKET captured on anti-hFc chip, hCLEC12A-His as analyte; 1:1 fit; after low pH hold (pH 3.3, 1.5 h), n=4
T3 construct: Recombinant soluble protein made in house (Dragonfly Tx); The hCLEC12A spot of the HuProt array is written under this molecule as well; also called hCLEC12A-His; hCLEC12A; not shown: His tag
T3 sequence: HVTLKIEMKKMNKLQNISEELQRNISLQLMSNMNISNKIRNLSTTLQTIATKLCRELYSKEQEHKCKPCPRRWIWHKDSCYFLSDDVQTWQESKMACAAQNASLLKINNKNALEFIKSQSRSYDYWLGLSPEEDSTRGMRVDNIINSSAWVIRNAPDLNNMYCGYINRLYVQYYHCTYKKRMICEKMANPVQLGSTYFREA

T1 sequence (P08637 17-208 F176V limits assumed): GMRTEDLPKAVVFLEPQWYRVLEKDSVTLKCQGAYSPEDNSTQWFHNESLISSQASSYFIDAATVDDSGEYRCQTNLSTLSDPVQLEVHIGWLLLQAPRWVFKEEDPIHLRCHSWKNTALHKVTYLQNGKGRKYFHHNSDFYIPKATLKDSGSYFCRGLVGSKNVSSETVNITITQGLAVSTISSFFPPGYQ

B1: F3'-1602 TriNKET (bispecific antibody, human IgG1, kappa)
chain: QLQLQESGPGLVKPSETLSLTCTVSGFSLTNYGLHWIRQPPGKCLEWIGVIWSGGKTDYNPSLKSRVTISKDTSKNQFSLKLSSVQAADTAVYYCAKYDYDDSLDYWGQGTLVTVSSGGGGSGGGGSGGGGSGGGGSDIQMTQSPSSLSASVGDRVTITCHASQNINFWLSWYQQKPGKAPKLLIYEASNLHTGVPSRFSGSGSGTRFTLTISSLQPEDIATYYCQQSHSYPLTFGCGTKLEIKGSDKTHTCPPCPAPELLGGPSVFLFPPKPKDTLMISRTPEVTCVVVDVSHEDPEVKFNWYVDGVEVHNAKTKPREEQYNSTYRVVSVLTVLHQDWLNGKEYKCKVSNKALPAPIEKTISKAKGQPREPRVYTLPPCRDELTKNQVSLTCLVKGFYPSDIAVEWESNGQPENNYKTTPPVLVSDGSFTLYSKLTVDKSRWQQGNVFSCSVMHEALHNHYTQKSLSLSPG
heavy: EVQLVESGGGLVKPGGSLRLSCAASGFTFSSYSMNWVRQAPGKGLEWVSSISSSSSYIYYADSVKGRFTISRDNAKNSLYLQMNSLRAEDTAVYYCARGAPIGAAAGWFDPWGQGTLVTVSSASTKGPSVFPLAPSSKSTSGGTAALGCLVKDYFPEPVTVSWNSGALTSGVHTFPAVLQSSGLYSLSSVVTVPSSSLGTQTYICNVNHKPSNTKVDKKVEPKSCDKTHTCPPCPAPELLGGPSVFLFPPKPKDTLMISRTPEVTCVVVDVSHEDPEVKFNWYVDGVEVHNAKTKPREEQYNSTYRVVSVLTVLHQDWLNGKEYKCKVSNKALPAPIEKTISKAKGQPREPQVCTLPPSRDELTENQVSLTCLVKGFYPSDIAVEWESNGQPENNYKTTPPVLDSDGSFFLYSWLTVDKSRWQQGNVFSCSVMHEALHNHYTQKSLSLSPG
light: DIQMTQSPSSVSASVGDRVTITCRASQGISSWLAWYQQKPGKAPKLLIYAASSLQSGVPSRFSGSGSGTDFTLTISSLQPEDFATYYCQQGVSFPRTFGGGTKVEIKRTVAAPSVFIFPPSDEQLKSGTASVVCLLNNFYPREAKVQWKVDNALQSGNSQESVTEQDSKDSTYSLSSTLTLSKADYEKHKVYACEVTHQGLSSPVTKSFNRGEC
notes: Trispecific F3' format: CLEC12A scFv-Fc paired with NKG2D Fab-Fc; Stressed and control samples of the stability studies are the same molecule; also called AB0237
Kd [1]: 212 nM | koff [1]: 0.024 s⁻¹ | kon [1]: 113000 M⁻¹ s⁻¹ | Kd (mFc-hNKG2D [2]): 671 nM | koff (mFc-hNKG2D [2]): 0.139 s⁻¹ | kon (mFc-hNKG2D [2]): 207000 M⁻¹ s⁻¹ | Kd [3]: 212 nM | koff [3]: 0.024 s⁻¹ | kon [3]: 113000 M⁻¹ s⁻¹ | Kd (mFc-hNKG2D [4]): 771 nM | Kd (mFc-hNKG2D [5]): 905 nM | koff (mFc-hNKG2D [5]): 0.122 s⁻¹ | kon (mFc-hNKG2D [5]): 135000 M⁻¹ s⁻¹ | Kd (Human CLEC12A-His): 0.644 nM | kon (Human CLEC12A-His): 715000 M⁻¹ s⁻¹
